Data as given in patent publication US20070087448.
Residue numbers refer to the chain shown, from its start.

Key:
[1] = target: T1, T45S variant of human apolipoprotein C1 (low mass variant, m/z=6617/6618)
T1 chain: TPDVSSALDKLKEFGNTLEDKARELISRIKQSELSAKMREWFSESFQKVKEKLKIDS

[2] = target: T2, human apolipoprotein C1, common form (m/z=6631)
T2 chain: T1 chain with S45T

[3] = target: plasma peptide at m/z=5082±4

B1: hog kidney dipeptidyl peptidase IV (DPPase IV), purchased from the Sigma Chemical Company (protein)
chain: DSRRTYTLTDYLKSTFRVKFYTLQWISDHEYLYKQENNILLFNAEYGNSSIFLENSTFDELGYSTNDYSVSPDRQFILFEYNYVKQWRHSYTASYDIYDLNKRQLITEERIPNNTQWITWSPVGHKLAYVWNNDIYVKNEPNLSSQRITWTGKENVIYNGVTDWVYEEEVFSAYSALWWSPNGTFLAYAQFNDTEVPLIEYSFYSDESLQYPKTVRIPYPKAGAENPTVKFFVVDTRTLSPNASVTSYQIVPPASVLIGDHYLCGVTWVTEERISLQWIRRAQNYSIIDICDYDESTGRWISSVARQHIEISTTGWVGRFRPAEPHFTSDGNSFYKIISNEEGYKHICHFQTDKSNCTFITKGAWEVIGIEALTSDYLYYISNEHKGMPGGRNLYRIQLNDYTKVTCLSCELNPERCQYYSASFSNKAKYYQLRCFGPGLPLYTLHSSSSDKELRVLEDNSALDKMLQDVQMPSKKLDVINLHGTKFWYQMILPPHFDKSKKYPLLIEVYAGPCSQKVDTVFRLSWATYLASTENIIVASFDGRGSGYQGDKIMHAINRRLGTFEVEDQIEATRQFSKMGFVDDKRIAIWGWSYGGYVTSMVLGAGSGVFKCGIAVAPVSKWEYYDSVYTERYMGLPTPEDNLDYYRNSTVMSRAENFKQVEYLLIHGTADDNVHFQQSAQLSKALVDAGVDFQTMWYTDEDHGIASNMAHQHIYTHMSHFLKQCFSLP
rate of enzyme cleavage (m/z=6618 conversion to m/z=6420) relative to the common form of apolipoprotein C1 [1]: 3.1 times the rate of degradation of the more common form of apolipoprotein C1 | MALDI-TOF profile after incubation of human plasma with the enzyme (conversion of the 6631 peak to the 6433 peak) [2]: The enzyme converted all of the material in the peak at 6631 to material in the 6433 peak | rate of enzyme cleavage (m/z=6631 conversion to m/z=6433), reference for the T45S variant [2]: degradation of the more common form of apolipoprotein C1 (m/z=6631 conversion to m/z=6433) | MALDI-TOF profile after 2 hours of digestion of diluted plasma with 1 unit of enzyme [3]: The 5082 peak had been completely digested to the 4885 peak
